Earlier results in PMC6958331.

Biological target: hemopexin (Homo sapiens) (UniProt P02790)
UniProt P02790, sequence (P02790 24-462): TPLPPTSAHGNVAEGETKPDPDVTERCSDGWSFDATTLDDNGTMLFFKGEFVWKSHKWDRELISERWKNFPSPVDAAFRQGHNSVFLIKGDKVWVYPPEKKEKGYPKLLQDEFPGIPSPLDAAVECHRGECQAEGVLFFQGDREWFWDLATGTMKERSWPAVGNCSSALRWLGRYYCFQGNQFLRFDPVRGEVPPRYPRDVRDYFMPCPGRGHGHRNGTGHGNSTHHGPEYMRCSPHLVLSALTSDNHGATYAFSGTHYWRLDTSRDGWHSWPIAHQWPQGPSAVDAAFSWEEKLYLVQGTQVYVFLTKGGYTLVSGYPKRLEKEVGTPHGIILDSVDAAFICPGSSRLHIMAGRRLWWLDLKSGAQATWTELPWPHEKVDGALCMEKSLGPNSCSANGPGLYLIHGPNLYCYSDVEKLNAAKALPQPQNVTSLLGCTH

In the case of LRP1/CD91 (from UniProt Q07954), the Kd is listed as 4 nM.
